Laboratory results: article PMC9287412, “Cryo-EM structure of the human Kv3.1 channel reveals gating control by the cytoplasmic T1 domain” (Nature Communications, 2022)

Target: the molecule itself
Assay: cryo-EM structure; purified Kv3.1a, 20 uM, in 20 mM HEPES pH 7.5, 100 mM NaCl, 50 mM KCl, 0.04% digitonin; apo, with 1 mM EDTA or with 400 uM ZnCl2; subunits within the tetrameric channel

B1: human Kv3.1a channel (full-length human Kv3.1, isoform A) (natural protein, UniProt P48547 1-511, looked up)
chain: MGQGDESERIVINVGGTRHQTYRSTLRTLPGTRLAWLAEPDAHSHFDYDPRADEFFFDRHPGVFAHILNYYRTGKLHCPADVCGPLYEEELAFWGIDETDVEPCCWMTYRQHRDAEEALDSFGGAPLDNSADDADADGPGDSGDGEDELEMTKRLALSDSPDGRPGGFWRRWQPRIWALFEDPYSSRYARYVAFASLFFILVSITTFCLETHERFNPIVNKTEIENVRNGTQVRYYREAETEAFLTYIEGVCVVWFTFEFLMRVIFCPNKVEFIKNSLNIIDFVAILPFYLEVGLSGLSSKAAKDVLGFLRVVRFVRILRIFKLTRHFVGLRVLGHTLRASTNEFLLLIIFLALGVLIFATMIYYAERIGAQPNDPSASEHTHFKNIPIGFWWAVVTMTTLGYGDMYPQTWSGMLVGALCALAGVLTIAMPVPVIVNNFGMYYSLAMAKQKLPKKKKKHIPRPPQLGSPNYCKSVVNSPHHSTQSDTCPLAQEEILEINRAGRKPLRGMSI
notes: Voltage-gated potassium channel Kv3.1, human, shorter splice variant Kv3.1a (isoform A, α-isoform), full length, cloned from the mammalian gene collection; Homotetramer in the cryo-EM structures; the longer Kv3.1b was not used; also called shorter α-isoform of Kv3.1; KCNC1 gene product; not shown: Strep-II, C-terminal, cleaved; His10, C-terminal, cleaved; GFP, C-terminal, cleaved
  stoichiometry N: 4
